The results in this text go back to IntAct's records for PubMed 30323948.

B1: Subversion of eukaryotic traffic protein A (Legionella pneumophila subsp. pneumophila), Q5ZU30 (parent)
chain: MYKIYSYLGWRIDMKTENLPQAGQEAQIDKKIHFIWVGHIMPQKNIQVVSEWAEKNPGYETIIWVDKKIAPAKELDLFILDMKSKGITVKDINEEGVCRDSIRHELDQESPNYGMVSDMLRLNILAAEGGIYLDSDILCSAPFPDEIYAPFGFLLSPWSQGANNTLCNDIILCSKGNQIIQQLADAIEQSYIARDSFEFTHEYASMKETKGERIAKTLGVTGPGFLFHQLKKMGILNDKSEMEAIHWELQDQRYLIDGSVKEPDYFYVPQNNTNDASWVPSIKRPGIENMSFQERLENAVQLIAFDIQKTGLFNLDHYANELKVKQNSWCIAAETSPELKPDSYLLIRPRDKTGEWTLYYVDEDKKLNPVTLPVIKGAIKLSEVSDPLRKFHTLLSQVSDPVNPTAHELKQIGRALIELKPRQDEWHCKNKWSGAEEIAQELWQRITSNETLRAQIKQCFTQFESLKPRVAELGLTRASGAGTEVEAHESTVKEQEIISQNTVGEEGTKEKNSVQLASENSSDEKIKTAHDLIDEIIQDVIQLDGKLGLLGGNTRQLEDGRVINIPNGAAMIFDDYKKYKQGELTAESALESMIKIAKLSNQLNRHTFFNQRQPETGQFYKKVAAIDLQTTIAAEYDNNHGLRI

In the first assay the parent is B1. The settings on record: with rab1a_human RAB1A.
Regarding D134A;D136A, the “effect of a mutation on the interaction” value is “disrupting interaction”.

The variants in the next assay derive from B1. To be noted: with rab7a_human RAB7A.
For the variant D134A;D136A, the “effect of a mutation on the interaction” value is listed as “disrupting interaction”.
